Legend:
[1] = target: full-length purified recombinant EWS-FLI1; test: co-IP
[2] = target: full-length purified recombinant EWS-FLI1; test: SPR

- percent of the GST-RHA(647-1075)/EWS-FLI1 association left with 0.1 μM E9R [1]: 50%
- response units at 32 μM E9R [2]: 13 R.U.
- response units at 32 μM E9R with 10 μM YK-4-279 [2]: 5 R.U.
- response units at 64 μM E9R [2]: 17 R.U.
- response units at 64 μM E9R with 10 μM YK-4-279 [2]: 7 R.U.
Binder: PPPLDAVIEA [E9R peptide, Q08211 823-832]

From PMC2777681
